Assay results from patent publication US20150225704A1 (UNIVERSITY OF BRITISH COLUMBIA, published 2015).

B5: GFP-JNK3 (c-jun N-terminal kinase 3) expressed in HEK293 cells (enzyme, UniProt P53779 1-464, looked up)
chain: MSLHFLYYCSEPTLDVKIAFCQGFDKQVDVSYIAKHYNMSKSKVDNQFYSVEVGDSTFTVLKRYQNLKPIGSGAQGIVCAAYDAVLDRNVAIKKLSRPFQNQTHAKRAYRELVLMKCVNHKNIISLLNVFTPQKTLEEFQDVYLVMELMDANLCQVIQMELDHERMSYLLYQMLCGIKHLHSAGIIHRDLKPSNIVVKSDCTLKILDFGLARTAGTSFMMTPYVVTRYYRAPEVILGMGYKENVDIWSVGCIMGEMVRHKILFPGRDYIDQWNKVIEQLGTPCPEFMKKLQPTVRNYVENRPKYAGLTFPKLFPDSLFPADSEHNKLKASQARDLLSKMLVIDPAKRISVDDALQHPYINVWYDPAEVEAPPPQIYDKQLDEREHTIEEWKELIYKEVMNSEEKTKNGVVKGQPSPSGAAVNSSESLPPSSSVNDISSMSTDQTLASDTDSSLEASAGPLGCCR
notes: not shown: GFP tag and linker of the gifted construct (Song et al. 2006)

What was measured:
[1] = molecular target: B5; experiment: co-immunoprecipitation, HEK293 cells
Procedure: (§1) For co-immunoprecipitation, cultured cells were washed with ice-cold PBS followed by incubation with 0.5 ml Gentle Lysis Buffer (GLB) containing 25 mM Tris-HCl (pH 7.4), 2 mM EDTA, 1 mM EGTA, 10 mM NaCl, 0.5% Triton X-100 and 10% Glycerol supplemented with the Complete Protease Inhibitor Tablets (Roche Applied Science™, Indianapolis, Ind., USA) and 1 mM PMSF. Total protein concentration was determined with the BioRad™ Protein Assay kit. Lysates were first precleaned by incubating with Protein A-Sepharose beads (Roche Applied Science™) for 1 h at 4° C., followed by incubation with indicated antibodies (>16 h at 4° C.) and protein A Sepharose bead (2 h at 4° C.). Lysates of rat brain tissues were precleaned with IgG and protein A-beads. […] The relative intensities of the bands on immunoblots were analyzed and quantified using Image J™ (NIH).

[2] = molecular target: T1, endogenous zD17 of rat cortical neuronal cultures and rat brain (rat, UniProt E9PTT0 1-622); experiment: co-immunoprecipitation, neuronal cultures treated with glutamate
T1 construct: Co-immunoprecipitated from lysates of Wistar rat cortical cultures or Sprague-Dawley rat brain

[3] = molecular target: T1, endogenous zD17 of rat cortical …; experiment: co-immunoprecipitation, neuronal cultures treated with IL-1β (10 ng/ml, 16 h)
Procedure: as §1

[4] = molecular target: T1, endogenous zD17 of rat cortical …; experiment: co-immunoprecipitation, neuronal cultures treated with NMDA
[5] = molecular target: T1, endogenous zD17 of rat cortical …; experiment: co-immunoprecipitation, neuronal cultures treated with TNF-α (50 ng/ml, 6 h)
Procedure: as §1

[6] = molecular target: T2, FLAG-MKK7 wt (UniProt O14733 1-419, limits assumed); experiment: co-immunoprecipitation, with against without zD17
T2 construct: Bought from Addgene; also called MKK7 wildtype; not shown: FLAG tag
T2 sequence (looked up): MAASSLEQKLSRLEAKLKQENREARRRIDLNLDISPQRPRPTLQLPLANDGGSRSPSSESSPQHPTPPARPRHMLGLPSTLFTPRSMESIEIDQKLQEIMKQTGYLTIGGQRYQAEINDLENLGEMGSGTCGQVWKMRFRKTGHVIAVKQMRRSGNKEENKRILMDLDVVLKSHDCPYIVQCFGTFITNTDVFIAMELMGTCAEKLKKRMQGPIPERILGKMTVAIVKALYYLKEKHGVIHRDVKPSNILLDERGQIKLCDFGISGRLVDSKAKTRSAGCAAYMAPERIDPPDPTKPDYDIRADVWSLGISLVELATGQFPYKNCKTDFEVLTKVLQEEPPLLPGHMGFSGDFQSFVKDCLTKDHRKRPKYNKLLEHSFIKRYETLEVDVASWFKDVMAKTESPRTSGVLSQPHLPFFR

[7] = molecular target: T3, myc-tagged full-length palmitoyl acyl transferase zinc-finger DHHC type containing 17 (zD17) (UniProt Q8IUH5 1-632); experiment: co-immunoprecipitation, HEK293 cells
T3 construct: range 1-632; Expressed in HEK293 cells (myc-zD17) or purified from E. coli as GST-myc-zD17 and freed of GST with thrombin; also called myc-zD17; zD17 wildtype
T3 sequence (Q8IUH5 whole entry): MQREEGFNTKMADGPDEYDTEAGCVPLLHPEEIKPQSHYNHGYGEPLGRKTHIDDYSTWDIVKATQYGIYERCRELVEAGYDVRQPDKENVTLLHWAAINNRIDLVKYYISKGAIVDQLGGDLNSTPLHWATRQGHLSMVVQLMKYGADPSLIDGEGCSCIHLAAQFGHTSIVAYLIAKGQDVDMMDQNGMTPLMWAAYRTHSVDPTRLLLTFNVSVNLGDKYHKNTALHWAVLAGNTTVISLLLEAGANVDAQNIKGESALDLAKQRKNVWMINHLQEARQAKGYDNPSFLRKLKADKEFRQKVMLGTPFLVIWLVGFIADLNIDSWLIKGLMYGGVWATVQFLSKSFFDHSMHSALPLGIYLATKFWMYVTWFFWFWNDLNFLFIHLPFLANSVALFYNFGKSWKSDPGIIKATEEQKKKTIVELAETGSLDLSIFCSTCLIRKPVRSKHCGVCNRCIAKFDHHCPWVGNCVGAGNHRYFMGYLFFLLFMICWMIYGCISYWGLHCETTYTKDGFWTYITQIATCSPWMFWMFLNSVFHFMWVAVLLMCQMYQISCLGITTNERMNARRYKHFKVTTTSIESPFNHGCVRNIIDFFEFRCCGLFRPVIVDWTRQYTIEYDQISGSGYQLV
Procedure: as §1

T1 sequence (E9PTT0 whole entry): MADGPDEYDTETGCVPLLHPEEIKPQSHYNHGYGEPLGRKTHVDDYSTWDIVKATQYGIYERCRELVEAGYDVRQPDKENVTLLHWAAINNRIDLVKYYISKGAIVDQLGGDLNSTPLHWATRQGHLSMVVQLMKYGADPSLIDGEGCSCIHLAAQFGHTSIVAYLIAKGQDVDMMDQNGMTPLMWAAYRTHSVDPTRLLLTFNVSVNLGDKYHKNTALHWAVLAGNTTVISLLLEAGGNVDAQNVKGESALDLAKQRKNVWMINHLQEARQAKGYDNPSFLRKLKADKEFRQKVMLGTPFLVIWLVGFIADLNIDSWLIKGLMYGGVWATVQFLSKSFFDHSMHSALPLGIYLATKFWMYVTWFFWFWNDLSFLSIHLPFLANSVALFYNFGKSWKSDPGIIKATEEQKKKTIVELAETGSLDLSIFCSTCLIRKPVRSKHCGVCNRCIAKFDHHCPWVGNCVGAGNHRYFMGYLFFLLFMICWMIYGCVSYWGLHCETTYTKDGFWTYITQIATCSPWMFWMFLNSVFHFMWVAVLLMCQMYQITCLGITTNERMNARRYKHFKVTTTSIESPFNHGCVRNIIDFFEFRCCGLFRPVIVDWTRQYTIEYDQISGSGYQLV

B1: zD15 (palmitoyl acyl transferase) expressed in HEK293 cells (enzyme, UniProt Q96MV8 1-337, looked up)
chain: MRRGWKMALSGGLRCCRRVLSWVPVLVIVLVVLWSYYAYVFELCLVTVLSPAEKVIYLILYHAIFVFFTWTYWKSIFTLPQQPNQKFHLSYTDKERYENEERPEVQKQMLVDMAKKLPVYTRTGSGAVRFCDRCHLIKPDRCHHCSVCAMCVLKMDHHCPWVNNCIGFSNYKFFLQFLAYSVLYCLYIATTVFSYFIKYWRGELPSVRSKFHVLFLLFVACMFFVSLVILFGYHCWLVSRNKTTLEAFCTPVFTSGPEKNGFNLGFIKNIQQVFGDKKKFWLIPIGSSPGDGHSFPMRSMNESQNPLLANEETWEDNEDDNQDYPEGSSSLAVETET
notes: Immunoprecipitated like myc-zD17
- binding result [1]: no binding

B2: zD20 (palmitoyl acyl transferase) expressed in HEK293 cells (enzyme, UniProt Q5W0Z9 1-365, looked up)
chain: MAPWTLWRCCQRVVGWVPVLFITFVVVWSYYAYVVELCVFTIFGNEENGKTVVYLVAFHLFFVMFVWSYWMTIFTSPASPSKEFYLSNSEKERYEKEFSQERQQEILRRAARALPIYTTSASKTIRYCEKCQLIKPDRAHHCSACDSCILKMDHHCPWVNNCVGFSNYKFFLLFLLYSLLYCLFVAATVLEYFIKFWTNELTDTRAKFHVLFLFFVSAMFFISVLSLFSYHCWLVGKNRTTIESFRAPTFSYGPDGNGFSLGCSKNWRQVFGDEKKYWLLPIFSSLGDGCSFPTRLVGMDPEQASVTNQNEYARSSGSNQPFPIKPLSESKNRLLDSESQWLENGAEEGIVKSGTNNHVTVAIEN
notes: as for B1
- binding result [1]: no binding

B3: endogenous JNK1 of rat cortical neuronal cultures (enzyme, UniProt P49185 1-411, looked up)
chain: MSRSKRDNNFYSVEIADSTFTVLKRYQNLKPIGSGAQGIVCAAYDAILERNVAIKKLSRPFQNQTHAKRAYRELVLMKCVNHKNIIGLLNVFTPQKSLEEFQDVYIVMELMDANLCQVIQMELDHERMSYLLYQMLCGIKHLHSAGIIHRDLKPSNIVVKSDCTLKILDFGLARTAGTSFMMTPYVVTRYYRAPEVILGMGYKENVDLWSVGCIMGEMVCLKILFPGRDYIDQWNKVIEQLGTPCPEFMKKLQPTVRTYVENRPKYAGYSFEKLFPDVLFPADSEHNKLKASQARDLLSKMLVIDASKRISVDEALQHPYINVWYDPSEAEAPPPKIPDKQLDEREHTIEEWKELIYKEVMDLEERTKNGVIRGQPSPLGAAVINGSQHPVSSPSVNDMSSMSTDPTLASD
- fold increase of zD17 interaction compared with control [2]: 1.4 fold

B4: endogenous JNK3 of rat cortical neuronal cultures and rat brain (enzyme, UniProt P49187 1-464, looked up)
chain: MSLHFLYYCSEPTLDVKIAFCQGFDKHVDVSSVVKHYNMSKSKVDNQFYSVEVGDSTFTVLKRYQNLKPIGSGAQGIVCAAYDAVLDRNVAIKKLSRPFQNQTHAKRAYRELVLMKCVNHKNIISLLNVFTPQKTLEEFQDVYLVMELMDANLCQVIQMELDHERMSYLLYQMLCGIKHLHSAGIIHRDLKPSNIVVKSDCTLKILDFGLARTAGTSFMMTPYVVTRYYRAPEVILGMGYKENVDIWSVGCIMGEMVRHKILFPGRDYIDQWNKVIEQLGTPCPEFMKKLQPTVRNYVENRPKYAGLTFPKLFPDSLFPADSEHNKLKASQARDLLSKMLVIDPAKRISVDDALQHPYINVWYDPAEVEAPPPQIYDKQLDEREHTIEEWKELIYKEVMNSEEKTKNGVVKGQPSPSGAAVNSSESLPPSSSVNDISSMSTDQTLASDTDSSLEASAGPLGCCR
- fold increase of zD17-JNK3 interaction against control [3]: 1.88 fold
- fold increase of zD17 interaction compared with control [4]: 2.5 fold
- fold increase of zD17 interaction compared with control [2]: 2.6 fold
- fold increase of zD17-JNK3 interaction against control [5]: 1.53 fold

Binder: B5
- fold enhancement of the JNK3-MKK7 association in the presence of zD17 [6]: 2.41 fold

B6: FLAG-MKK6 (enzyme, UniProt P52564 1-334, looked up)
chain: MSQSKGKKRNPGLKIPKEAFEQPQTSSTPPRDLDSKACISIGNQNFEVKADDLEPIMELGRGAYGVVEKMRHVPSGQIMAVKRIRATVNSQEQKRLLMDLDISMRTVDCPFTVTFYGALFREGDVWICMELMDTSLDKFYKQVIDKGQTIPEDILGKIAVSIVKALEHLHSKLSVIHRDVKPSNVLINALGQVKMCDFGISGYLVDSVAKTIDAGCKPYMAPERINPELNQKGYSVKSDIWSLGITMIELAILRFPYDSWGTPFQQLKQVVEEPSPQLPADKFSAEFVDFTSQCLKKNSKERPTYPELMQHPFFTLHESKGTDVASFVKLILGD
notes: Bought from Addgene; not shown: FLAG tag
- binding result [7]: no binding
